In paper PMC3951675 (Journal of molecular biology, 2013):

B1: isolated regulatory domain of tyrosine hydroxylase (RDTyrH, residues 1-159) (domain or fragment, rat, UniProt P04177 1-159, looked up)
chain: MPTPSAPSPQPKGFRRAVSEQDAKQAEAVTSPRFIGRRQSLIEDARKEREAAAAAAAAAVASSEPGNPLEAVVFEERDGNAVLNLLFSLRGTKPSSLSRAVKVFETFEAKIHHLETRPAQRPLAGSPHLEYFVRFEVPSGDLAALLSSVRRVSDDVRSA
B2: regulatory domain of tyrosine hydroxylase lacking the first 64 residues (RDTyrH_(65-159)) (domain or fragment, rat, UniProt P04177 65-159, looked up)
chain: PGNPLEAVVFEERDGNAVLNLLFSLRGTKPSSLSRAVKVFETFEAKIHHLETRPAQRPLAGSPHLEYFVRFEVPSGDLAALLSSVRRVSDDVRSA

Key:
AUC = molecular target: the molecule itself; assay: AUC
SEC = molecular target: the molecule itself; assay: SEC

Row | Protein | stoichiometry N (AUC) | stoichiometry N (SEC)
1 | B1 | 2 | –
2 | B2 | – | 2
